In paper PMC12170907 (Cell Discovery, 2025):

Experiments:
[1] = target: T1, Superfolder-GFP-tagged M-HBsAg (serotype ayw, genotype D3) (Hepatitis B virus genotype D3, serotype …, UniProt P03138); assay: pull-down; conditions: one partner purified
T1 construct: source: FreeStyle 293F cells, BacMam virus; purified (ELISA); membranes solubilised with 1% LMNG and 0.1% CHS, supernatant (pull-down); not shown: superfolder GFP, N-terminal, kept

[2] = target: T1, Superfolder-GFP-tagged M-HBsAg …; assay: ELISA; conditions: both partners purified

B1: strep-tagged Fab_(GC1102) (Fab, V domains shown)
VH: EVQLVESGGGLVKPGGSLRLSCSASGFSLTKYKMTWVRQAPGKGLEWVSSISSTSRDIDYADSVKGRFTISRDNAKNSLFLQMSSLRVDDTAVYYCTRDGWLWGWDVRSNYYYNALDVWGQGTTVTVSS
VL: DIVVTQSPSSLSASVGDRVTITCRASQGIYNSIAWYQQKPGKAPKLLLYSTSTLLSGVPSRFSGSGSGTDYTLTITNLQPEDFATYYCQQYFVTPETFGQGTKLEIK
notes: also called strep-HA-tagged NAb_(GC1102); Fab_(GC1102) bait
- binding result [1]: binds

B2: Myc-tagged Fab_(GC1102) (Fab, V domains shown)
VH: B1 VH
VL: B1 VL
notes: also called NAb_(GC1102); GC1102 prey
- binding result [1]: binds

B3: 3× HA-tagged FabHBC (Fab, V domains shown)
VH: ELQLVESGGGWVQPGGSQRLSCAASGRIFRSFYMSWVRQAPGKGLEWVATINQDGSEKLYVDSVKGRFTISRDNAKNSLFLQMNNLRVEDTAVYYCAAWSGNSGGMDVWGQGTTVSVSS
VL: SYELTQPPSVSVSPGQTVSIPCSGDKLGNKNVCWFQHKPGQSPVLVIYEVKYRPSGIPERFSGSNSGNTATLTISGTQAMDEAAYFCQTWDSTTVVFGGGTRLTVL
notes: also called NAbHBC; parental antibody of VIR-3434; source: FreeStyle 293F, co-transfected heavy and light chain, purified from the supernatant (Ni-NTA, SP HP); not shown: His tag (from the Ni-NTA purification); 3× HA, C-terminal, kept
- binding result [2]: binds

B4: strep-tagged Fab_(H006) (Fab, V domains shown)
VH: QMRLVESGGGVVRPGGSLRLSCAGSGFRFTGYGIHWVRQAPGKGLEWLAYISNDGSKKYHTDSVKGRFTVSRDNAKNTAYLQMNSLRVEETAVYFCAKDGYLSAARGYGMDVWGQGIPVTVSP
VL: SYVLTQPPSVSVAPGQTATITCGGNNIGGKSVHWFQQKPGQAPLLIISDDNDRPSGIPERVSGSNSGNTATLTISRVEAGDEADYYCQVWDTTSDQLVFGGGTMLTVL
- binding result [1]: binds

B5: Myc-tagged scFv_(H006) (scFv, V domains shown)
VH: B4 VH
VL: B4 VL
- binding result [1]: binds
